Test results: patent publication US20100143940A1, “(3R)-HYDROXYACYL-ACP DEHYDRATASE ENZYMES USED IN THE BIOSYNTHESIS OF MYCOLIC ACIDS AND USE OF SAME FOR SCREENING ANTIBIOTICS” (priority 2007, published 2010)

Key:
2-trans-octenoyl-ACP [1] = target: 2-trans-octenoyl-ACP (UniProt P0A6A8)
2-trans-octenoyl-ACP [2] = assay: Study of the ACP-dependency, hydration of the ACP derivative at 263 nm; format: biochemical, E. coli; conditions: 2-trans-octenoyl-ACP 2 μM; Rv0635-Rv0636 80 nM, Rv0636-Rv0637 311 nM, Rv0636 alone 311 nM
[3] = target: T1, 2-trans-octenoyl-ACP, P0A6A8
T1 chain: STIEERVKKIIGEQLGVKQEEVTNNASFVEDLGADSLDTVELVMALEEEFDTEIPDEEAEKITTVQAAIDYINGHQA

[4] = Hydratase activity monitored by spectrophotometry at 263 nm, control experiments of the isomerase test; format: biochemical; conditions: 2-trans-decenoyl-CoA 10 μM; Rv0635-Rv0636 80 nM or Rv0636-Rv0637 543 nM; 100 mM sodium phosphate pH 7.0, 25° C.
Experimental: (§1) These reactions are monitored by spectrophotometry at 263 nm by means of a thermostated Uvikon 923 spectrophotometer (Kontron Instruments). They are carried out in a quartz cuvette (optical path of 1 cm) in a total volume of 700 μl at 25° C. The reaction mixture contains 100 mM sodium phosphate buffer, pH 7.0, and varying concentrations of substrates. After equilibration of the base line on the reaction mixture in the absence of the enzyme, the reactions are triggered by the addition of enzyme, and then monitored for 1.5 to 5 min. The reaction rate corresponds to the initial rate measured by plotting the tangent of the curve OD=f(time) at time zero.
The conversions corresponding to the hydration reaction and to the dehydration reaction are associated, respectively, with a decrease and with an increase in the absorbance at 263 nm, linked to the double bond conjugated to the carbonyl. A variation in OD263 of 0.67 corresponds to a variation in concentration of 100 μM.
(§2) The ability of the proteins to catalyze the isomerization reaction was studied in the presence of 3-cis-decenoyl-CoA (10 μM) and of Rv0635-Rv0636 enzyme (80 nM) or Rv0636-Rv0637 enzyme (543 nM). […] The reactions were monitored at 263 nm, where the increase in absorbance results from the conversion of the 3-cis-decenoyl-CoA into 2-trans-decenoyl-CoA.

[5] = Isomerase activity, conversion of 3-cis-enoyl into 2-trans-enoyl, monitored at 263 nm; format: biochemical; conditions: 3-cis-decenoyl-CoA 10 μM; Rv0635-Rv0636 80 nM or Rv0636-Rv0637 543 nM
Experimental: as §1
As in certain FAS-II systems described, the dehydration step can be catalyzed either by a (3R)-hydroxyacyl-ACP dehydratase, or by a (3R)-hydroxyacyl-ACP dehydratase/isomerase of FabA type which, in vivo, converts the 2-trans-enoyls, formed by the dehydration step, into 3-cis-enoyls. […]
as §2

[6] = Study of the ACP-dependency, hydration of the CoA derivative at 263 nm; format: biochemical; conditions: 2-trans-octenoyl-CoA 2 μM; compared with control experiment (no enzyme)
Experimental: as §1
The activities of the enzymes Rv0635-Rv0636 (80 nM), Rv0636-Rv0637 (311 nM) or Rv0636 alone (311 nM) were compared in the presence of 2-trans-octenoyl-ACP (2 μM) or of 2-trans-octenoyl-CoA (2 μM).

[7] = Substrate specificity, 2-trans-enoyl-CoA of various chain lengths; format: biochemical
Experimental: as §1
The substrate specificity was studied in the presence of 2-trans-enoyl-CoA of various chain lengths (C4-C20). The initial rates were measured and compared at a very low substrate concentration in order to reduce as much as possible the solubility problems encountered with these amphiphilic compounds. […]
The tests were carried out in 100 mM sodium phosphate buffer, pH 7.0, in the presence of 3-hydroxybutyryl-CoA (25 or 75 μM) or of 2-trans-octenoyl-CoA (25 μM) or of crotonoyl-CoA (25 μM), and of enzyme (Rv0635-Rv0636: 80 nM; Rv0636-Rv0637: 543 nM). […] After addition of the enzyme, the reactions were monitored by spectrophotometry at 263 nM for 1.5 min. […]

Rv0635-Rv0636 heterodimer
specific activity (hydration followed at 263 nm), 2 µM substrate, 80 nM enzyme (2-trans-octenoyl-ACP [1]): 0.28 µmol/min/mg

B1: Rv0636 homodimer: recombinant Rv0636 protein of M. tuberculosis H37Rv (SEQ ID No. 2) carrying the hydratase 2 motif, tested alone (protein, listed as Mycobacterium tuberculosis)
chain: MALREFSSVKVGDQLPEKTYPLTRQDLVNYAGVSGDLNPIHWDDEIAKVVGLDTAIAHGMLTMGIGGGYVTSWVGDPGAVTEYNVRFTAVVPVPNDGKGAELVFNGRVKSVDPESKSVTIALTATTGGKKIFGRAIASAKLA
modifications: homodimer
specific activity in the presence of 2-trans-octenoyl-ACP (2-trans-octenoyl-ACP [2]): no activity

B2: Rv0636-Rv0637 heterodimer (protein)
chain 1: HHHHHHMALREFSSVKVGDQLPEKTYPLTRQDLVNYAGVSGDLNPIHWDDEIAKVVGLDTAIAHGMLTMGIGGGYVTSWVGDPGAVTEYNVRFTAVVPVPNDGKGAELVFNGRVKSVDPESKSVTIALTATTGGKKIFGRAIASAKLA
chain 2: MALKTDIRGMIWRYPDYFIVGREQCREFARAVKCDHPAFFSEEAAADLGYDALVAPLTFVTILAKYVQLDFFRHVDVGMETMQIVQVDQRFVFHKPVLAGDKLWARMDIHSVDERFGADIVVTRNLCTNDDGELVMEAYTTLMGQQGDGSARLKWDKESGQVIRTA
specific activity (hydration followed at 263 nm), 2 µM substrate [3]: 0.047 µmol/min/mg of protein

B3: Rv0636-Rv0637: recombinant heterodimeric (3R)-hydroxyacyl-ACP dehydratase of the M. tuberculosis H37Rv FAS-II system, Rv0636 plus Rv0637 (protein)
chain 1: HHHHHHMALREFSSVKVGDQLPEKTYPLTRQDLVNYAGVSGDLNPIHWDDEIAKVVGLDTAIAHGMLTMGIGGGYVTSWVGDPGAVTEYNVRFTAVVPVPNDGKGAELVFNGRVKSVDPESKSVTIALTATTGGKKIFGRAIASAKLA
chain 2: MALKTDIRGMIWRYPDYFIVGREQCREFARAVKCDHPAFFSEEAAADLGYDALVAPLTFVTILAKYVQLDFFRHVDVGMETMQIVQVDQRFVFHKPVLAGDKLWARMDIHSVDERFGADIVVTRNLCTNDDGELVMEAYTTLMGQQGDGSARLKWDKESGQVIRTA
specific activity [4]: 0.02 μmol/min/mg of protein | isomerase activity [5]: do not exhibit any isomerase activity | specific activity in the presence of 2-trans-octenoyl-ACP (2-trans-octenoyl-ACP [2]): 0.047 µmol/min/mg | activity in the presence of 2-trans-octenoyl-CoA [6]: not significant | activity on C12-C20 trans-2-enoyl-CoAs at low substrate concentration ([7]; 2.5 μM substrate): no activity could be detected | activity in the presence of short-chain (C4-C8) substrates ([7]; 2.5 or 25 μM 2-trans-enoyl-CoA, Rv0635-Rv0636 80 nM, Rv0636-Rv0637 543 nM): inactive
